The record followed here is publication PMC12024540, “Peptide-Based Regulation of TNF-α-Mediated Cytotoxicity” (Biomolecules, 2025).

This assay relates to caspase-3 and caspase-7 activities in L929 cells. The assay can be described thus: Caspase-Glo 3/7 apoptosis assay on TNF-α-stimulated L929 cells. Type of assay: cell-based, mouse. To be noted: at 10 nM and 100 nM with TNF-α 1 ng/mL. As to the method: Apoptosis was detected by measuring caspase-3 and caspase-7 activities with the Promega Caspase-Glo 3/7 Assay Kit. A total of 1.5 × 10^4 cells were seeded onto opaque 96-well tissue culture plates. After 24 ± 2 h of incubation, cells were stimulated with the same concentration of actinomycin D and TNF-α with different peptide concentrations. After 4 h of incubation in 5% CO2 at 37 °C, freshly prepared caspase 3/7 reagent was added to each well, followed by incubation for 1 h at room temperature. Luminescence was measured using a plate reader (CLARIOstar Plus, BMG Labtech, Ortenberg, Germany). Fold change was calculated from the ratio of luminescence of cell control to that of TNF-α-treated cells.

B1: TNFR1: Human TNFR1 (soluble) recombinant protein applied with TNF-α in the caspase 3/7 assay (protein)
chain: SVCPQGKYIHPQNNSICCTKCHKGTYLYNDCPGPGQDTDCRECESGSFTASENHLRHCLSCSKCRKEMGQVEISSCTVDRDTVCGCRKNQYRHYWSENLFQCFNCSLCLNGTVHLSCQEKQNTVCTCHAGFFLRENECVS
modifications: fluorescent label from the Monolith Protein Labeling Kit RED-NHS 2nd Generation (labelled target in MST)
notes: Human TNFR1 (soluble) recombinant protein applied with TNF-α in the caspase 3/7 assay
B1: the “effect on caspase 3/7 activity” value is reported as “significantly reduced caspase 3/7 activity”.
